Reference: the supplement of paper PMC10065799, “High-throughput profiling of sequence recognition by tyrosine kinases and SH2 domains using bacterial peptide display” (eLife, 2023)

What was measured:
AncSZ = test: phosphorylation enrichment, bacterial display (enrichment ratio); higher = better substrate or ligand; peptides without Tyr show the background
EPHB1 = EPHB1 (UniProt P54762); test: as above
EPHB2 = EPHB2 (UniProt P29323); test: as above
FGFR1 = FGFR1 (UniProt P11362); test: as above
Sequence of FGFR1 (P11362 whole entry, looked up): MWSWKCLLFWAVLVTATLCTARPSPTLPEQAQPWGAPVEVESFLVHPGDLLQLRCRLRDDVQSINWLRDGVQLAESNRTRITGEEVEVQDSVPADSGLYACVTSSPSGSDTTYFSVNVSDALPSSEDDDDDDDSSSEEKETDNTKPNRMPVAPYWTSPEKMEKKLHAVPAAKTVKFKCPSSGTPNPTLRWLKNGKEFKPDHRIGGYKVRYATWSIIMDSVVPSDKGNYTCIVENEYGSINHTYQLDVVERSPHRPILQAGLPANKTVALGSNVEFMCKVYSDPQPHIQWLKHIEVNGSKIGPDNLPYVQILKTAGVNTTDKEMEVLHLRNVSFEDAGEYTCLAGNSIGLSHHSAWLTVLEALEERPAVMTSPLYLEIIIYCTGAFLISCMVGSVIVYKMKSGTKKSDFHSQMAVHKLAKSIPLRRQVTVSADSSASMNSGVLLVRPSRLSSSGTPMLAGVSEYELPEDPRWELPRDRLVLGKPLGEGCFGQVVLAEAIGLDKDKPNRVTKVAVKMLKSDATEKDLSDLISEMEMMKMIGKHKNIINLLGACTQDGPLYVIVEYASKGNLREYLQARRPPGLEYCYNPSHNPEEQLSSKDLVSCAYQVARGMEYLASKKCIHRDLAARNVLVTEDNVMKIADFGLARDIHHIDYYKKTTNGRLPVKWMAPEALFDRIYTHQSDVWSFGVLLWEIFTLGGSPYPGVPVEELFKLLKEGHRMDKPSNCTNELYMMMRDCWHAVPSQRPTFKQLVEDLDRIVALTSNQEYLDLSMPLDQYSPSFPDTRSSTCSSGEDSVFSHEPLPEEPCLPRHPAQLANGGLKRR

FGFR3 = FGFR3 (UniProt P22607); test: as above
Sequence of FGFR3 (P22607 whole entry, looked up): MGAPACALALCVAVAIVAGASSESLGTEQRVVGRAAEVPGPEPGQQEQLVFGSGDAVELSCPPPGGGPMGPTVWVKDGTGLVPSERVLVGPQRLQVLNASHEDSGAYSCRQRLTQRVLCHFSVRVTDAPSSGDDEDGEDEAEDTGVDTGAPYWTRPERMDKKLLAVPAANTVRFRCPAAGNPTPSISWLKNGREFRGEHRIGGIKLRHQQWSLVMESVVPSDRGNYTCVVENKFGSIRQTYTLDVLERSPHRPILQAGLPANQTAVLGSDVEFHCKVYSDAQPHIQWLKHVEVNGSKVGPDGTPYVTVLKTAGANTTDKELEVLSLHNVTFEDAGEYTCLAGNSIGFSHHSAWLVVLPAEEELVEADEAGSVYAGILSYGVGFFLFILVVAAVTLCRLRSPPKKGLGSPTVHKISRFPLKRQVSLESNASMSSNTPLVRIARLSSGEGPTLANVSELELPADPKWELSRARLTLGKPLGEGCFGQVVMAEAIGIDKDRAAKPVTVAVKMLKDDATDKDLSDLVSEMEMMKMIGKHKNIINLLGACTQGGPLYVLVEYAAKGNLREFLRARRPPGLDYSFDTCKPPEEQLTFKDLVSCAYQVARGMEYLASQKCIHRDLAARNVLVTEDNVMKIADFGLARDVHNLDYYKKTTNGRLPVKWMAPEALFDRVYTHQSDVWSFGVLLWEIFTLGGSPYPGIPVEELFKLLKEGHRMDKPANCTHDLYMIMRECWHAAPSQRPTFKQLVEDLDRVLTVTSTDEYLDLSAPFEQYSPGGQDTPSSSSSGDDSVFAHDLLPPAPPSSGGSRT

Fer (mouse) = test: as above
Fes = Fes (UniProt P07332); test: as above
Fyn = Fyn (UniProt P06241); test: as above
Sequence of Fyn (P06241 whole entry, looked up): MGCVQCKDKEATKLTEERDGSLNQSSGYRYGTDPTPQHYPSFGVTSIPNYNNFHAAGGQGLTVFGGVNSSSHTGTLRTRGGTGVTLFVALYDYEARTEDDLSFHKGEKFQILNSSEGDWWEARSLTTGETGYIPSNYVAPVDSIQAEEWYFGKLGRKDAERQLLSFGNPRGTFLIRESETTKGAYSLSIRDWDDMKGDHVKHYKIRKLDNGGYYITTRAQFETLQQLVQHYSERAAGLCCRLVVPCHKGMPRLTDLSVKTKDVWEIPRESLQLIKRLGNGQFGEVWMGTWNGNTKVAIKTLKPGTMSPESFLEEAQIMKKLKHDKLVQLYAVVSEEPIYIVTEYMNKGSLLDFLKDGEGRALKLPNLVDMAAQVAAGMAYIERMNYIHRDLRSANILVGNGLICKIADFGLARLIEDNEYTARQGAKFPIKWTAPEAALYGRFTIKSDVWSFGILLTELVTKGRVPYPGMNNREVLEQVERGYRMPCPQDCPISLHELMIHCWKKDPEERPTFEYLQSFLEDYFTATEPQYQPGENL

Hck = Hck (UniProt P08631); test: as above
Sequence of Hck (P08631 whole entry, looked up): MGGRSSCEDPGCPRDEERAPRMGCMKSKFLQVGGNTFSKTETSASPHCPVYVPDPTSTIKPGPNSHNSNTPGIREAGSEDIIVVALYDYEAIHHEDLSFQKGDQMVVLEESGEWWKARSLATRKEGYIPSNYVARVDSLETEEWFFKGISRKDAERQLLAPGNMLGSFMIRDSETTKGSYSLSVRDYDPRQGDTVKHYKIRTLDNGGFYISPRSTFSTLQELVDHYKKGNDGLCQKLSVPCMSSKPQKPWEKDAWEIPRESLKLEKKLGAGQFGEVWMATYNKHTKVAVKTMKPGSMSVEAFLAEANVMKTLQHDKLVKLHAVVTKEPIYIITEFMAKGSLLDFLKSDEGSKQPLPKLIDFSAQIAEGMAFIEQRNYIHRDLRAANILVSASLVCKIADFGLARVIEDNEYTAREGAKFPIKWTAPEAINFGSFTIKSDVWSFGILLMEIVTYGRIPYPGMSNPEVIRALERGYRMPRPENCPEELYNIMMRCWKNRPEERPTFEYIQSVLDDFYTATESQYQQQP

Jak2 = Jak2 (UniProt O60674); test: as above
MERTK = MERTK (UniProt Q12866); test: as above
Sequence of MERTK (Q12866 whole entry, looked up): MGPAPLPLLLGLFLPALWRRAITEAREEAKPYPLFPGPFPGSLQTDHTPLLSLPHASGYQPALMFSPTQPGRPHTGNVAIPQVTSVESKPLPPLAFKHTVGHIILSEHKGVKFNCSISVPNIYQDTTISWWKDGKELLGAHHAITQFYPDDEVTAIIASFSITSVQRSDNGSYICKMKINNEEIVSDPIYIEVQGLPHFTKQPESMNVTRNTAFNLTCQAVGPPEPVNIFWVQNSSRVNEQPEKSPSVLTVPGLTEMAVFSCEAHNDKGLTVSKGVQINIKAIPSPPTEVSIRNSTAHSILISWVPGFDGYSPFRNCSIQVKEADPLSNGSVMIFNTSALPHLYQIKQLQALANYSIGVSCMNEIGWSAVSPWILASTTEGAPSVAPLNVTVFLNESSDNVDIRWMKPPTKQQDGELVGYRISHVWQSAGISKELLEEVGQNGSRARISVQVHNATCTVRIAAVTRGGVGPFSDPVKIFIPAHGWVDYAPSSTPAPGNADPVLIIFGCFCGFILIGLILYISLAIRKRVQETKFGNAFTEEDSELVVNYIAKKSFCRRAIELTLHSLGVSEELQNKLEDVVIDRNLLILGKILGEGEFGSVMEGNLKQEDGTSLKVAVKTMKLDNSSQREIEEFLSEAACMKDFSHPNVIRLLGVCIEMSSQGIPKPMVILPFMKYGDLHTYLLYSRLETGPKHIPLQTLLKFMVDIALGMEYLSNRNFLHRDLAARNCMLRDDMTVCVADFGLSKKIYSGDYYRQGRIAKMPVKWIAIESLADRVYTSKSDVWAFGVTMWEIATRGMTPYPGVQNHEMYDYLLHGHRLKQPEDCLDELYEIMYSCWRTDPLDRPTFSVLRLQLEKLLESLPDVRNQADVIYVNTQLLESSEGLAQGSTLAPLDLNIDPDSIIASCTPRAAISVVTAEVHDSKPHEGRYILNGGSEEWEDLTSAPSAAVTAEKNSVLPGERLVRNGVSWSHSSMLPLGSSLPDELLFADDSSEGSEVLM

c-Abl (mouse) = test: as above
c-Src = test: as above
Grb2 SH2 = Grb2 SH2 (UniProt P62993); test: SH2 binding enrichment of the phosphorylated peptide, bacterial display (enrichment ratio); higher = better substrate or ligand; peptides without Tyr show the background
SHP2-C SH2 = test: as above
c-Src SH2 = test: as above
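Wherever SH2 binding enrichment of the phosphorylated peptide, bacterial display is given: peptide library displayed on the E. coli surface as eCPX fusions, selected cells deep-sequenced, score is each peptide's frequency after selection divided by its frequency in the input.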
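Wherever phosphorylation enrichment, bacterial display is given: 11-residue human phosphosite peptides and single-mutation variants displayed on the E. coli surface, counted by deep sequencing, each peptide's frequency after selection divided by its frequency in the unselected input library; frequency after pTyr selection over input frequency; kinase dosed for 20-30% of maximal phosphorylation in three min.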

Sequence of EPHB2 (P29323 whole entry, looked up): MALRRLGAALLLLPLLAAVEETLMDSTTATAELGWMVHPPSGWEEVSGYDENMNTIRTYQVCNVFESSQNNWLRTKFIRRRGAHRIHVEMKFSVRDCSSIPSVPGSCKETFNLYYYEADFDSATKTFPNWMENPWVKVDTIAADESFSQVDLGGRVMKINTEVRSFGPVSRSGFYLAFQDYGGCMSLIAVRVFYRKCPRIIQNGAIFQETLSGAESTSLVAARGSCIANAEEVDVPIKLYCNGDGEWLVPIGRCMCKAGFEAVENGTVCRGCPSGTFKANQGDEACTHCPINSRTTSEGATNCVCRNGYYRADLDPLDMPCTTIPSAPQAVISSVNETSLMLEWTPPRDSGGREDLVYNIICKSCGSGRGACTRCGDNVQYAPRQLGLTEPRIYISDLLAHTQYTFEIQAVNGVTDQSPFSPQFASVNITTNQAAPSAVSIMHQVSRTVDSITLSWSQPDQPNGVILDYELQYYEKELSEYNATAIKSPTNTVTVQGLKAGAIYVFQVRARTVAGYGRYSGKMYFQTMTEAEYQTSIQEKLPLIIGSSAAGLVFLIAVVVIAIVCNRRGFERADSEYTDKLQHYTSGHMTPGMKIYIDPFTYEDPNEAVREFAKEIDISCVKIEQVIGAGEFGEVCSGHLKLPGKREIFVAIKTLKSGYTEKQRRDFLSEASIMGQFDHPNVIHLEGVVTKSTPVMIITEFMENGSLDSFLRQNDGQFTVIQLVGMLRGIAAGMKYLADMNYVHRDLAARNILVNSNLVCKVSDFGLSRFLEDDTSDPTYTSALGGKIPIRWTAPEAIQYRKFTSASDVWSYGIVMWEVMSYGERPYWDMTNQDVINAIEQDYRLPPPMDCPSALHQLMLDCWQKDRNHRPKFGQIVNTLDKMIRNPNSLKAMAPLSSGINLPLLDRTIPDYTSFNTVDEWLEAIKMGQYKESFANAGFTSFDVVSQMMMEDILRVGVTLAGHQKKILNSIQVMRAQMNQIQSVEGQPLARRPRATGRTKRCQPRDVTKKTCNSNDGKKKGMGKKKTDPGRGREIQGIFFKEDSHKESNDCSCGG

| Sequence | SH2 binding enrichment (Grb2 SH2) | SH2 binding enrichment (SHP2-C SH2) | SH2 binding enrichment (c-Src SH2) | phosphorylation enrichment (AncSZ) | phosphorylation enrichment (EPHB1) | phosphorylation enrichment (EPHB2) | phosphorylation enrichment (FGFR1) | phosphorylation enrichment (FGFR3) | phosphorylation enrichment (Fer (mouse)) | phosphorylation enrichment (Fes) | phosphorylation enrichment (Fyn) | phosphorylation enrichment (Hck) | phosphorylation enrichment (Jak2) | phosphorylation enrichment (MERTK) | phosphorylation enrichment (c-Abl (mouse)) | phosphorylation enrichment (c-Src) |
| --- | --- | --- | --- | --- | --- | --- | --- | --- | --- | --- | --- | --- | --- | --- | --- | --- |
| SNSAAYSGSVA [PDLIM5_Y382_T381A] | 0.774 | 0.559 | 0.481 | 0.512 | 0.398 | 0.393 | 0.33 | 0.421 | 0.343 | 0.566 | 0.404 | 0.354 | 0.636 | 0.381 | 0.697 | 0.409 |
| RHTRSYDYTEG [FGF7_Y56_M59T] | 0.864 | 0.841 | 1.5 | 0.521 | 0.407 | 0.369 | 0.488 | 0.546 | 0.477 | 0.918 | 0.635 | 0.602 | 0.587 | 0.514 | 0.414 | 0.476 |
| PSGPMYRGAVP [ASAH1_Y43_T42M] | 0.926 | 0.842 | 0.472 | 0.617 | 0.34 | 0.539 | 0.392 | 0.573 | 0.347 | 1.21 | 0.467 | 0.48 | 0.67 | 0.483 | 0.68 | 0.334 |
| EYYENYIEELK [PARP4_Y218_F215Y] | 2.13 | 0.706 | 1.04 | 2.04 | 1.09 | 0.967 | 4.75 | 3.7 | 0.706 | 1.29 | 0.648 | 0.554 | 1.11 | 0.38 | 0.775 | 1.01 |
| EGLKVYINGTL [ADGRD1_Y183_V184I] | 1.32 | 0.659 | 0.381 | 1.18 | 0.663 | 0.614 | 0.554 | 0.853 | 0.555 | 1.49 | 0.401 | 0.541 | 1.38 | 0.337 | 0.8 | 0.4 |
| GKTQQYECKWY [BCR_Y751_D752E] | 0.677 | 0.584 | 0.735 | 0.936 | 0.507 | 0.6 | 0.499 | 0.642 | 0.549 | 1.05 | 0.443 | 0.447 | 0.97 | 0.487 | 0.681 | 0.522 |
| LYEDRYLLGPS [ASS1_Y87_T91P] | 0.69 | 0.662 | 0.626 | 1.2 | 3.52 | 1.4 | 1.2 | 1.16 | 5.42 | 1.67 | 2.3 | 4.13 | 0.812 | 0.899 | 0.683 | 1.5 |
| LSDGPYSNSYE [EPOR_Y485_P488S] | 0.557 | 0.523 | 1.56 | 1.24 | 0.944 | 0.67 | 0.862 | 1.02 | 0.604 | 1.2 | 0.59 | 0.664 | 1.38 | 0.622 | 0.762 | 0.968 |
| DWLRRYLENGK [HLA-A_Y195_E190D] | 0.654 | 0.366 | 0.211 | 1.1 | 0.723 | 0.946 | 0.728 | 0.708 | 1.02 | 1.04 | 0.642 | 0.705 | 0.986 | 0.864 | 0.584 | 0.617 |
| AGIVDYNIIGW [MYH7_Y588] | 0.562 | 0.589 | 0.566 | 1.07 | 0.636 | 0.431 | 0.873 | 0.909 | 0.439 | 1.18 | 0.497 | 0.497 | 0.877 | 0.349 | 0.619 | 0.454 |
| PADQAYSWFQH [NDST1_Y711_R709Q_YF] | 0.648 | 1.01 | 0.891 | 1.7 | 1.3 | 0.926 | 5.17 | 4.33 | 26.6 | 2.91 | 1.38 | 1.36 | 0.855 | 7.11 | 0.58 | 2.41 |
| DRFDNYIEKVR [DES_Y122_A120D] | 0.836 | 0.596 | 0.507 | 0.709 | 0.348 | 0.433 | 0.539 | 0.604 | 0.408 | 0.774 | 0.432 | 0.413 | 0.755 | 0.406 | 0.583 | 0.421 |
| EILTQYEAMAS [GFAP_Y242_R239L] | 0.853 | 0.638 | 2.84 | 1.02 | 0.547 | 0.452 | 0.485 | 0.608 | 0.514 | 0.976 | 0.529 | 0.526 | 0.846 | 0.471 | 0.713 | 0.503 |
| VATSWYRSPEL [CDKL5_Y177_R175S] | 0.827 | 0.77 | 0.549 | 0.768 | 0.417 | 0.435 | 0.553 | 0.545 | 0.409 | 0.656 | 0.466 | 0.469 | 0.548 | 0.412 | 0.427 | 0.344 |
| KVITDYYVDMK [MPP4_Y566] | 0.875 | 0.704 | 2.9 | 1.26 | 1.71 | 0.865 | 3.97 | 2.64 | 0.496 | 1.07 | 0.557 | 0.576 | 1.4 | 0.577 | 0.758 | 0.597 |
| FADIAYNFHHG [PAH_Y166_R169H_YF] | 0.62 | 0.564 | 0.566 | 0.686 | 0.427 | 0.524 | 0.515 | 0.478 | 0.483 | 0.725 | 0.704 | 0.528 | 0.43 | 0.406 | 0.354 | 0.501 |
| RASGIYYVPKG [APBB1IP_Y340] | 1.1 | 0.767 | 0.955 | 1.39 | 16.6 | 9.84 | 5.75 | 5.79 | 1.82 | 1.24 | 15.1 | 15.1 | 4.09 | 19.8 | 43.9 | 8.24 |
| PFRKLYESVKK [MKI67_Y241_W238R] | 0.973 | 0.711 | 0.714 | 0.931 | 0.516 | 0.368 | 2.28 | 0.685 | 0.458 | 0.695 | 0.454 | 0.563 | 1.16 | 0.612 | 1 | 0.491 |
| DGMADYSDPSY [CDC5L_Y459] | 0.833 | 0.616 | 0.459 | 1.43 | 1.33 | 1.71 | 0.611 | 0.686 | 0.486 | 1.3 | 0.571 | 0.487 | 1.47 | 0.496 | 0.859 | 0.538 |
| KIITDYFVDMK [MPP4_Y566_V562I_YF] | 0.83 | 0.571 | 0.526 | 1.05 | 0.575 | 0.566 | 0.732 | 0.783 | 0.456 | 1.15 | 0.513 | 0.479 | 1.14 | 0.37 | 0.644 | 0.529 |

Continued, in another order:

| SH2 binding enrichment (Grb2 SH2) | SH2 binding enrichment (SHP2-C SH2) | SH2 binding enrichment (c-Src SH2) | Sequence | phosphorylation enrichment (AncSZ) | phosphorylation enrichment (EPHB1) | phosphorylation enrichment (EPHB2) | phosphorylation enrichment (FGFR1) | phosphorylation enrichment (FGFR3) | phosphorylation enrichment (Fer (mouse)) | phosphorylation enrichment (Fes) | phosphorylation enrichment (Fyn) | phosphorylation enrichment (Hck) | phosphorylation enrichment (Jak2) | phosphorylation enrichment (MERTK) | phosphorylation enrichment (c-Abl (mouse)) | phosphorylation enrichment (c-Src) |
| --- | --- | --- | --- | --- | --- | --- | --- | --- | --- | --- | --- | --- | --- | --- | --- | --- |
| 0.767 | 0.61 | 0.425 | FPHVIYARLWR [SMAD4_Y95] | 0.917 | 3.11 | 1.16 | 0.567 | 0.648 | 0.539 | 0.85 | 5.08 | 5.38 | 0.751 | 1.5 | 10.1 | 5.17 |
| 1.04 | 0.77 | 0.619 | KDHPDYKYQPR [SOX10_Y171] | 0.668 | 0.362 | 0.381 | 0.492 | 0.481 | 0.435 | 0.595 | 0.458 | 0.463 | 0.509 | 0.387 | 0.687 | 0.412 |
| 0.711 | 0.687 | 0.535 | QLCVSYPGGFT [PROS1_Y259_N258S_YF] | 1.12 | 0.481 | 0.546 | 0.496 | 0.892 | 0.775 | 1.47 | 0.663 | 0.682 | 1.45 | 0.578 | 1.24 | 0.658 |
| 0.739 | 0.641 | 0.541 | DNKALYDICFR [TUBB3_Y208_E205K] | 1.38 | 2.95 | 2.23 | 0.612 | 0.853 | 4.5 | 1.26 | 2.6 | 4.34 | 1.18 | 7.18 | 1.41 | 3.21 |
| 1.07 | 0.574 | 2.1 | RAMPVYEKAEH [TP63_Y231_K232E] | 0.664 | 0.654 | 0.834 | 0.493 | 0.545 | 1.79 | 0.598 | 0.867 | 1.02 | 1.03 | 0.453 | 0.576 | 0.776 |
| 0.604 | 0.592 | 0.341 | DDLEVYLKHPL [SACS_Y3477_L3481P] | 1.53 | 0.871 | 0.625 | 0.643 | 0.735 | 0.558 | 1.31 | 1.26 | 1.73 | 1.32 | 0.562 | 0.842 | 1.85 |
| 15.4 | 2.03 | 2.79 | RLGNQYVNVMN [SLC3A1_Y461] | 0.619 | 2.21 | 0.59 | 0.541 | 0.991 | 0.513 | 0.727 | 0.471 | 0.446 | 0.64 | 0.352 | 0.524 | 0.508 |
| 0.795 | 0.685 | 0.422 | SVTCTYSPALF [TP53_Y126_N131Y_YF] | 1.51 | 0.872 | 0.694 | 0.542 | 1.17 | 0.727 | 1.74 | 0.837 | 0.695 | 1.52 | 0.479 | 1.05 | 1 |
| 1.01 | 0.716 | 0.874 | PHMQTYEVDLN [SDHB_Y61] | 1.17 | 0.978 | 0.797 | 0.61 | 0.755 | 1.02 | 1.29 | 0.906 | 0.804 | 1.12 | 0.51 | 0.649 | 1.04 |
| 0.854 | 0.775 | 0.567 | FPLELYERVRI [PRKCG_Y312_M317I_YF] | 1.34 | 1.66 | 1.1 | 0.498 | 0.652 | 3.28 | 1.29 | 0.48 | 1.18 | 1.39 | 0.453 | 0.739 | 0.528 |
| 1.33 | 1.09 | 1.59 | PYRQWYESHYA [RPS8_Y113] | 1.61 | 2.82 | 2.27 | 1.36 | 1.1 | 10.9 | 1.69 | 1.09 | 1.3 | 1.37 | 1.86 | 1.19 | 2.35 |
| 0.787 | 0.505 | 0.487 | SGPRRYTMAAL [TTR_Y125_I127M] | 0.677 | 0.396 | 0.466 | 0.423 | 0.459 | 0.383 | 0.611 | 0.416 | 0.488 | 0.601 | 0.44 | 0.555 | 0.533 |
| 0.798 | 0.854 | 0.84 | TNEYEYDELIV [TGM1_Y136_D132N] | 1.45 | 0.814 | 0.975 | 0.809 | 0.925 | 0.593 | 1.23 | 0.952 | 0.769 | 1.29 | 0.525 | 0.962 | 0.981 |
